Biological target: Hsp90AA1-MC, HA-tagged
Assay: native gel or EMSA

stoichiometry N: 2
Substance: Hsp90AA1-MC, HA-tagged (domain or fragment)

— article PMC6432644
